# B1: E3 ubiquitin-protein ligase TRIM37 (Homo sapiens), O94972 (parent)
# chain: MDEQSVESIAEVFRCFICMEKLRDARLCPHCSKLCCFSCIRRWLTEQRAQCPHCRAPLQLRELVNCRWAEEVTQQLDTLQLCSLTKHEENEKDKCENHHEKLSVFCWTCKKCICHQCALWGGMHGGHTFKPLAEIYEQHVTKVNEEVAKLRRRLMELISLVQEVERNVEAVRNAKDERVREIRNAVEMMIARLDTQLKNKLITLMGQKTSLTQETELLESLLQEVEHQLRSCSKSELISKSSEILMMFQQVHRKPMASFVTTPVPPDFTSELVPSYDSATFVLENFSTLRQRADPVYSPPLQVSGLCWRLKVYPDGNGVVRGYYLSVFLELSAGLPETSKYEYRVEMVHQSCNDPTKNIIREFASDFEVGECWGYNRFFRLDLLANEGYLNPQNDTVILRFQVRSPTFFQKSRDQHWYITQLEAAQTSYIQQINNLKERLTIELSRTQKSRDLSPPDNHLSPQNDDALETRAKKSACSDMLLEGGPTTASVREAKEDEEDEEKIQNEDYHHELSDGDLDLDLVYEDEVNQLDGSSSSASSTATSNTEENDIDEETMSGENDVEYNNMELEEGELMEDAAAAGPAGSSHGYVGSSSRISRRTHLCSAATSSLLDIDPLILIHLLDLKDRSSIENLWGLQPRPPASLLQPTASYSRKDKDQRKQQAMWRVPSDLKMLKRLKTQMAEVRCMKTDVKNTLSEIKSSSAASGDMQTSLFSADQAALAACGTENSGRLQDLGMELLAKSSVANCYIRNSTNKKSNSPKPARSSVAGSLSLRRAVDPGENSRSKGDCQTLSEGSPGSSQSGSRHSSPRALIHGSIGDILPKTEDRQCKALDSDAVVVAVFSGLPAVEKRRKMVTLGANAKGGHLEGLQMTDLENNSETGELQPVLPEGASAAPEEGMSSDSDIECDTENEEQEEHTSVGGFHDSFMVMTQPPDEDTHSSFPDGEQIGPEDLSFNTDENSGR
# B2: Peroxisomal biogenesis factor 19 (Homo sapiens), P40855 (parent)
# chain: MAAAEEGCSVGAEADRELEELLESALDDFDKAKPSPAPPSTTTAPDASGPQKRSPGDTAKDALFASQEKFFQELFDSELASQATAEFEKAMKELAEEEPHLVEQFQKLSEAAGRVGSDMTSQQEFTSCLKETLSGLAKNATDLQNSSMSEEELTKAMEGLGMDEGDGEGNILPIMQSIMQNLLSKDVLYPSLKEITEKYPEWLQSHRESLPPEQFEKYQEQHSVMCKICEQFEAETPTDSETTQKARFEMVLDLMQQLQDLGHPPKELAGEMPPGLNFDLDALNLSGPPGASGEQCLIM
# B3: Peroxisomal biogenesis factor 3 (Homo sapiens), P56589 (parent)
# chain: MLRSVWNFLKRHKKKCIFLGTVLGGVYILGKYGQKKIREIQEREAAEYIAQARRQYHFESNQRTCNMTVLSMLPTLREALMQQLNSESLTALLKNRPSNKLEIWEDLKIISFTRSTVAVYSTCMLVVLLRVQLNIIGGYIYLDNAAVGKNGTTILAPPDVQQQYLSSIQHLLGDGLTELITVIKQAVQKVLGSVSLKHSLSLLDLEQKLKEIRNLVEQHKSSSWINKDGSKPLLCHYMMPDEETPLAVQACGLSPRDITTIKLLNETRDMLESPDFSTVLNTCLNRGFSRLLDNMAEFFRPTEQDLQHGNSMNSLSSVSLPLAKIIPIVNGQIHSVCSETPSHFVQDLLTMEQVKDFAANVYEAFSTPQQLEK
# B4: CREB/ATF bZIP transcription factor (Homo sapiens), Q9NS37 (parent)
# chain: MRHSLTKLLAASGSNSPTRSESPEPAATCSLPSDLTRAAAGEEETAAAGSPGRKQQFGDEGELEAGRGSRGGVAVRAPSPEEMEEEAIASLPGEETEDMDFLSGLELADLLDPRQPDWHLDPGLSSPGPLSSSGGGSDSGGLWRGDDDDEAAAAEMQRFSDLLQRLLNGIGGCSSSSDSGSAEKRRRKSPGGGGGGGSGNDNNQAATKSPRKAAAAAARLNRLKKKEYVMGLESRVRGLAAENQELRAENRELGKRVQALQEESRYLRAVLANETGLARLLSRLSGVGLRLTTSLFRDSPAGDHDYALPVGKQKQDLLEEDDSAGGVCLHVDKDKVSVEFCSACARKASSSLKM
# partner: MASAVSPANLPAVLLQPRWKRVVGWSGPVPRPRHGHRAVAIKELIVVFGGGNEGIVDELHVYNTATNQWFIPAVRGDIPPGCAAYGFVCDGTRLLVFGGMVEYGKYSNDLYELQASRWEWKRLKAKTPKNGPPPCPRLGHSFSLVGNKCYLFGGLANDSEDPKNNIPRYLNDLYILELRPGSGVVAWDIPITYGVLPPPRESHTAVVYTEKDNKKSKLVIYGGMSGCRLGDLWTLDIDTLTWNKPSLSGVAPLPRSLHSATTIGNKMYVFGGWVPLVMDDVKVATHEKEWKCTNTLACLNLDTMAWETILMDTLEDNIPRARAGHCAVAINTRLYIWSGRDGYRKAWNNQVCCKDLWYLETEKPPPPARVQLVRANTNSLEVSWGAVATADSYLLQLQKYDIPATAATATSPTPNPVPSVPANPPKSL
# B5: Host cell factor 1 (Homo sapiens), P51610-3 (parent)
# chain: B4 partner
# partner: B4 chain
# B6: Estrogen-related receptor gamma (Homo sapiens), P62508-3 (parent)
# chain: MSNKDRHIDSSCSSFIKTEPSSPASLTDSVNHHSPGGSSDASGSYSSTMNGHQNGLDSPPLYPSAPILGGSGPVRKLYDDCSSTIVEDPQTKCEYMLNSMPKRLCLVCGDIASGYHYGVASCEACKAFFKRTIQGNIEYSCPATNECEITKRRRKSCQACRFMKCLKVGMLKEGVRLDRVRGGRQKYKRRIDAENSPYLNPQLVQPAKKPLLWSDPADNKIVSHLLVAEPEKIYAMPDPTVPDSDIKALTTLCDLADRELVVIIGWAKHIPGFSTLSLADQMSLLQSAWMEILILGVVYRSLSFEDELVYADDYIMDEDQSKLAGLLDLNNAILQLVKKYKSMKLEKEEFVTLKAIALANSDSMHIEDVEAVQKLQDVLHEALQDYEAGQHMEDPRRAGKMLMTLPLLRQTSTKAVQHFYNIKLEGKVPMHKLFLEMLEAKV
# Variants of: B1
# Details: with pnkp_human PNKP
row,effect of a mutation on the interaction,Variant
1,with no effect,N376R

# Variants of: B2
# Details: with pex3_human PEX3, P56589
row,effect of a mutation on the interaction,Variant
1,decreasing interaction strength,MAAAEEGCSVGAEADRELEELLESALDDKDKAKPSPAPPSTTTAPDASGPQKRSPGDTAKDALFASQEKFFQELFDSELASQATAEFEKAMKELAEEEPHLVEQFQKLSEAAGRVGSDMTSQQEFTSCLKETLSGLAKNATDLQNSSMSEEELTKAMEGLGMDEGDGEGNILPIMQSIMQNLLSKDVLYPSLKEITEKYPEWLQSHRESLPPEQFEKYQEQHSVMCKICEQFEAETPTDSETTQKARFEMVLDLMQQLQDLGHPPKELAGEMPPGLNFDLDALNLSGPPGASGEQCLIM [F29K]

# Variants of: B3
# Details: with pex16_human PEX16, Q9Y5Y5
# Sequence of pex16_human PEX16, Q9Y5Y5 (Q9Y5Y5 whole entry): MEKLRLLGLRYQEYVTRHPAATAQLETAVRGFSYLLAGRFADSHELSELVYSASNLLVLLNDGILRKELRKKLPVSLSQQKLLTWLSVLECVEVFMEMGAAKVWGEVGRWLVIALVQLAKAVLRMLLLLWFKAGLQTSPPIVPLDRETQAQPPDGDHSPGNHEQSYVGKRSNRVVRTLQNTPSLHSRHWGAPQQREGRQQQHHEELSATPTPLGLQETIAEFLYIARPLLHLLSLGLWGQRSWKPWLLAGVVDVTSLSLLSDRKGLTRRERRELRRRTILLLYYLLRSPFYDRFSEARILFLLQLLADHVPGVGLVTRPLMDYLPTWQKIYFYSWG
row,effect of a mutation on the interaction,Variant
1,decreasing interaction strength,MLRSVWNFLKRHKKKCIFLGTVLGGVYILGKYGQKKIREIQEREAAEYIAQARRQYHFESNQRTCNMTVLSMLPTLREALMQQLNSESLTALLKNRPSNKLEIWEDLKIISFTRSTVAVYSTCMLVVLLRVQLNIIGGYIYLDNAAVGKNGTTILAPPDVQQQYLSSIQHLLGDGLTELITVIKQAVQKVLGSVSLKHSLSLLDLEQKLKEIRNLVEQHKSSSWINKDGSKPLLCHYMMPDEETPLAVQACGLSPRDITTIKLLNETRDMLRSPDFSTVLNTCLNRGFSRLLDNMAEFFRPTEQDLQHGNSMNSLSSVSLPLAKIIPIVNGQIHSVCSETPSHFVQDLLTMEQVKDFAANVYEAFSTPQQLEK [E272R]
2,decreasing interaction strength,MLRSVWNFLKRHKKKCIFLGTVLGGVYILGKYGQKKIREIQEREAAEYIAQARSQYHFESNQRTCNMTVLSMLPTLREALMQQLNSESLTALLKNRPSNKLEIWEDLKIISFTRSTVAVYSTCMLVVLLRVQLNIIGGYIYLDNAAVGKNGTTILAPPDVQQQYLSSIQHLLGDGLTELITVIKQAVQKVLGSVSLKHSLSLLDLEQKLKEIRNLVEQHKSSSWINKDGSKPLLCHYMMPDEETPLAVQACGLSPRDITTIKLLNETRDMLESPDFSTVLNTCLNRGFSRLLDNMAEFFRPTEQDLQHGNSMNSLSSVSLPLAKIIPIVNGQIHSVCSETPSHFVQDLLTMEQVKDFAANVYEAFSTPQQLEK [R54S]

# Variants of: B4
# Details: with HCFC1, P51610-3
row,effect of a mutation on the interaction,Variant
1,decreasing interaction strength,MRHSLTKLLAASGSNSPTRSESPEPAATCSLPSDLTRAAAGEEETAAAGSPGRKQQFGDEGELEAGRGSRGGVAVRAPSPEEMEEEAIASLPGEETEDMDFLSGLELADLLDPRQPDWHLDPGLSSPGPLSSSGGGSDSGGLWRGDDDDEAAAAEMQRFSDLLQRLLNGIGGCSSSSDSGSAEKRRRKSPGGGGGGGSGNDNNQAATKSPRKAAAAAARLNRLKKKEYVMGLESRVRGLAAENQELRAENRELGKRVQALQEESRYLRAVLANETGLARLLSRLSGVGLRLTTSLFRDSPAGDHDAALPVGKQKQDLLEEDDSAGGVCLHVDKDKVSVEFCSACARKASSSLKM [Y306A]

# Variants of: B5
# Details: with zhang_human CREBZF
row,effect of a mutation on the interaction,Variant
1,decreasing interaction strength,MASAVSPANLPAVLLQPRWKRVVGWSGPVPRPRHGHRAVAIKELIVVFGGGNEGIVDELHVYNTATNQWFIPAVRGDIPPGCAAYGFVCDGTRLLVFGGMVEYGKYSNDLYELQASRWEWKRLKAKTPKNGPPPCPRFGHSFSLVGNKCYLFGGLANDSEDPKNNIPRYLNDLYILELRPGSGVVAWDIPITYGVLPPPRESHTAVVYTEKDNKKSKLVIYGGMSGCRLGDLWTLDIDTLTWNKPSLSGVAPLPRSLHSATTIGNKMYVFGGWVPLVMDDVKVATHEKEWKCTNTLACLNLDTMAWETILMDTLEDNIPRARAGHCAVAINTRLYIWSGRDGYRKAWNNQVCCKDLWYLETEKPPPPARVQLVRANTNSLEVSWGAVATADSYLLQLQKYDIPATAATATSPTPNPVPSVPANPPKSL [L138F]
2,decreasing interaction strength,MASAVSPANLPAVLLQPRWKRVVGWSGPVPRPRHGHRAVAIKELIVVFGGGNEGIVDELHVYNTATNQWFIPAVRGDIPPGCAAYGFVCDGTRLLVFGGMVEYGKYSNDLYELQASRWEWKRLKAKTPKNGPPPCPRLGHSFSLVGNKCYLFGGLANDSEDPKNNIPRYLNDLYILELRPGSGVVAWDIPITYGVLPPPRESHTAVVYTEKDNKKSKLVIYGGMSGCRLGDLWTLDIDTLTWNKPSLSGVAPLPRSFHSATTIGNKMYVFGGWVPLVMDDVKVATHEKEWKCTNTLACLNLDTMAWETILMDTLEDNIPRARAGHCAVAINTRLYIWSGRDGYRKAWNNQVCCKDLWYLETEKPPPPARVQLVRANTNSLEVSWGAVATADSYLLQLQKYDIPATAATATSPTPNPVPSVPANPPKSL [L257F]
3,with no effect,MASAVSPANLPAVLLQPRWKRVVGWSGPVPRPRHGHRAVAIKELIVVFGGGNEGIVDELHVYNTATNQWFIPAVRGDIPPGCAAYGFVCDGTRLLVFGGMVEYGKYSNDLYELQASRWEWKRLKAKTPKNGPPPCPRLGHSFSLVGNKCYLFGGLANDSEDPKNNIPRYLNDLYILELRPGSGVVAWDIPITYGVLPPPRESHTAVVYTEKDNKKSKLVIYGGMNGCRLGDLWTLDIDTLTWNKPSLSGVAPLPRSLHSATTIGNKMYVFGGWVPLVMDDVKVATHEKEWKCTNTLACLNLDTMAWETILMDTLEDNIPRARAGHCAVAINTRLYIWSGRDGYRKAWNNQVCCKDLWYLETEKPPPPARVQLVRANTNSLEVSWGAVATADSYLLQLQKYDIPATAATATSPTPNPVPSVPANPPKSL [S225N]

# Variants of: B6
# Details: with prs8_human PSMC5, P62195
# Sequence of prs8_human PSMC5, P62195 (P62195 whole entry): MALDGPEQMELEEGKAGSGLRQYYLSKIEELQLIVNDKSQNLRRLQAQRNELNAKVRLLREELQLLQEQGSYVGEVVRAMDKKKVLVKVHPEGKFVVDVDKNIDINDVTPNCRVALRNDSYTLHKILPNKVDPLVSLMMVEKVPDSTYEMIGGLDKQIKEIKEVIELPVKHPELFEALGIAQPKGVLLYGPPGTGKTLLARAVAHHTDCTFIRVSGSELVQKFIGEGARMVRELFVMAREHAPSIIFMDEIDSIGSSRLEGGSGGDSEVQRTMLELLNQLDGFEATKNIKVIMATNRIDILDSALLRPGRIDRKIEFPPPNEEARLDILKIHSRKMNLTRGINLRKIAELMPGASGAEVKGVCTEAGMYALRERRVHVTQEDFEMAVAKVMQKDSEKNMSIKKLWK
row,effect of a mutation on the interaction,Variant
1,decreasing interaction strength,MSNKDRHIDSSCSSFIKTEPSSPASLTDSVNHHSPGGSSDASGSYSSTMNGHQNGLDSPPLYPSAPILGGSGPVRKLYDDCSSTIVEDPQTKCEYMLNSMPKRLCLVCGDIASGYHYGVASCEACKAFFKRTIQGNIEYSCPATNECEITKRRRKSCQACRFMKCLKVGMLKEGVRLDRVRGGRQKYKRRIDAENSPYLNPQLVQPAKKPLLWSDPADNKIVSHLLVAEPEKIYAMPDPTVPDSDIKALTTLCDLADRELVVIIGWAKHIPGFSTLSLADQMSLLQSAWMEILILGVVYRSLSFEDELVYADDYIMDEDQSKLAGLLDLNNAILQLVKKYKSMKLEKEEFVTLKAIALANSDSMHIEDVEAVQKLQDVLHEALQDYEAGQHMEDPRRAGKMLMTLPLLRQTSTKAVQHFYNIKLEGKVPMHKLFLEFLEAKV [M437F]
2,decreasing interaction strength,MSNKDRHIDSSCSSFIKTEPSSPASLTDSVNHHSPGGSSDASGSYSSTMNGHQNGLDSPPLYPSAPILGGSGPVRKLYDDCSSTIVEDPQTKCEYMLNSMPKRLCLVCGDIASGYHYGVASCEACKAFFKRTIQGNIEYSCPATNECEITKRRRKSCQACRFMKCLKVGMLKEGVRLDRVRGGRQKYKRRIDAENSPYLNPQLVQPAKKPLLWSDPADNKIVSHLLVAEPEKIYAMPDPTVPDSDIKALTTLCDLADRELVVIEGWAKHIPGFSTLSLADQMSLLQSAWMEILILGVVYRSLSFEDELVYADDYIMDEDQSKLAGLLDLNNAILQLVKKYKSMKLEKEEFVTLKAIALANSDSMHIEDVEAVQKLQDVLHEALQDYEAGQHMEDPRRAGKMLMTLPLLRQTSTKAVQHFYNIKLEGKVPMHKLFLEMLEAKV [I264E]
